According to IntAct's records for PubMed 19338389:

B1: Transcription factor p65 (Mus musculus), Q04207 (parent)
chain: MDDLFPLIFPSEPAQASGPYVEIIEQPKQRGMRFRYKCEGRSAGSIPGERSTDTTKTHPTIKINGYTGPGTVRISLVTKDPPHRPHPHELVGKDCRDGYYEADLCPDRSIHSFQNLGIQCVKKRDLEQAISQRIQTNNNPFHVPIEEQRGDYDLNAVRLCFQVTVRDPAGRPLLLTPVLSHPIFDNRAPNTAELKICRVNRNSGSCLGGDEIFLLCDKVQKEDIEVYFTGPGWEARGSFSQADVHRQVAIVFRTPPYADPSLQAPVRVSMQLRRPSDRELSEPMEFQYLPDTDDRHRIEEKRKRTYETFKSIMKKSPFNGPTEPRPPTRRIAVPTRNSTSVPKPAPQPYTFPASLSTINFDEFSPMLLPSGQISNQALALAPSSAPVLAQTMVPSSAMVPLAQPPAPAPVLTPGPPQSLSAPVPKSTQAGEGTLSEALLHLQFDADEDLGALLGNSTDPGVFTDLASVDNSEFQQLLNQGVSMSHSTAEPMLMEYPEAITRLVTGSQRPPDPAPTPLGTSGLPNGLSGDEDFSSIADMDFSALLSQISS
partner: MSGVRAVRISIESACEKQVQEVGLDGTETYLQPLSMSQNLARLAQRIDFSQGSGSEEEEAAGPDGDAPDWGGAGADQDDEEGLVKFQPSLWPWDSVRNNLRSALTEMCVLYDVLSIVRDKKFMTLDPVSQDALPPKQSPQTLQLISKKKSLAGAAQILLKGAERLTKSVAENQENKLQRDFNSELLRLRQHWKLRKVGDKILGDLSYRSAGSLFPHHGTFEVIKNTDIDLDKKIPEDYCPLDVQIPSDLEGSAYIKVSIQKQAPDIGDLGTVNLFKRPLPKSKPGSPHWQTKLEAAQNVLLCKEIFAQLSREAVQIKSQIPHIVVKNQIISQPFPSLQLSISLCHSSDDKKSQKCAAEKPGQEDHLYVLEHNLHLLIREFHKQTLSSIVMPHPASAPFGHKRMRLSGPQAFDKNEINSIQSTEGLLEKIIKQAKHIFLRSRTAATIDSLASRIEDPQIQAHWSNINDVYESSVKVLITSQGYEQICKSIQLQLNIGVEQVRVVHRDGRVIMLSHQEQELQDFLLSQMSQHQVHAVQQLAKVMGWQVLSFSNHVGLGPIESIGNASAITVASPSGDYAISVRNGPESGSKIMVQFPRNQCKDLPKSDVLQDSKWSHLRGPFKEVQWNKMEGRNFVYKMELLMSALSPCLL

Variants of: B1
Settings: with med17_mouse Med17, Q8VCD5

Effect of a mutation on the interaction, disrupting interaction:
G528A;D529A;E530A;D531S;F532A;S533A;S534A
D539A;F540A
I535A;D537A;M538S;D539A;F540A;S541A
